Data reported in the supplement of paper PMC12042874.
± gives the uncertainty stated by the source.

Assay: amyloid nucleation score (Sup35N fusion, yeast selection) (log enrichment); library NNK3; higher = more nucleation; inactive = no reads after selection
Summary of the method: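 Plasmid inserts were Illumina-sequenced at input and output from psi-negative yeast expressing Sup35N fused to peptides of 20 random codons. The yeast were induced with 100 μM copper sulfate for 24 hours and grown 7 days at 30°C on medium lacking adenine and uracil, and sequences with under 100 input reads were excluded. Nucleation score is the DiMSum log enrichment of output over input reads, centred on the mode score of non-aggregating sequences.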

| Substance | amyloid nucleation score |
| --- | --- |
| FPKLAIVFMHSSLWYFSYWV | inactive |
| FPLDRGYSVTGDMRMPPAVR | inactive |
| FPLESG | inactive |
| FPQFLSIAGPKPHCKN | inactive |
| FPVYQCWLSN | inactive |
| FQCMFYFIFSRCQHLVYCHF | inactive |
| FQCWYNKIRKFWVVHRWVSM | inactive |
| FQMVA | inactive |
| FRLMVGCCYGGPGREVWAGG | inactive |
| FRLRGLKLTSNMDDWMLIKE | inactive |
| FRNNRRRAVMCSGFMFRFNF | inactive |
| FRQYKSPGDLPRMDAVACGK | -0.832 ± 2.5 |
| FRSAN | inactive |
| FRYRLWAMRDVKHSYDFSLW | inactive |
| FSACRDRTLGDHGQQPRDIG | inactive |
| FSAGGVPYYICYSCIAKFRL | inactive |
| FSAIRVLYSVKTELDSNNMY | 0.822 ± 0.24 |
| FSASVVSTGINTSY | inactive |
| FSCDIAVILNLDLTMVDLLF | inactive |
| FSCMTADSNSGIVRVR | inactive |
| FSEASPLYVTSPRQSSLPRP | inactive |
| FSFITL | inactive |

| Substance | amyloid nucleation score |
| --- | --- |
| FSFTRNERIDSLCSNAHSFT | inactive |
| FSFWTTSN | inactive |
| FSGATSFNQIYAVRTSCLFV | 1.01 ± 0.18 |
| FSGFTVR | inactive |
| FSGNGSSYYASSMNGDTVFL | inactive |
| FSGNRSGESSVRWNQYELGV | inactive |
| FSGRFHMENTMYHTIYKIKS | inactive |
| FSISKLGCCYVTAMVVSASR | inactive |
| FSLDPTIVMSVIARDSMSML | inactive |
| FSLFS | inactive |
| FSLHNRGFMIQHKRVLEDGA | inactive |
| FSLHQSNTLRPWDLIPATW | inactive |
| FSLLCFRSWANPIVTMYKYY | inactive |
| FSLMLSRTTMAIFTDIRDWG | inactive |
| FSLSQLLVCFWADSRSMKWT | inactive |
| FSLWEHPVKIMCLFVYVACG | inactive |
| FSNDFFCLCPS | inactive |
| FSNGPSAVYYFIYLGLFNKN | 1.48 ± 0.072 |
| FSRGLNHYNLYNFGGLCICT | 2.91 ± 0.07 |
| FSSCDHRFWTFLIKFMLLAL | inactive |
| FSSYTWNPL | inactive |
| FSVIMFMNLRAQFASMDRGG | 1.59 ± 0.12 |

| Substance | amyloid nucleation score |
| --- | --- |
| FSVLVSCSWGMKFI | inactive |
| FSVYVAG | inactive |
| FSYSSRGVYYG | -0.649 ± 0.98 |
| FSYVPQAILYLCLYYNVVHT | inactive |
| FTCEPARFKDYQWNNEGYCL | inactive |
| FTCQSHAILGVDDDTWGRTN | inactive |
| FTFRLVKNTTLNGIYFCIKR | 0.787 ± 0.18 |
| FTINV | inactive |
| FTIVTQCEPTRLSCISDNIR | inactive |
| FTLDYLNSGSI | inactive |
| FTLPKHFTRIL | inactive |
| FTMALMLALTTGISSMSVGG | 0.345 ± 0.37 |
| FTPLCSNVAGRNMEQYCS | inactive |
| FTWIFRFMPIWHACDKRVFE | 1.71 ± 0.088 |
| FVANISFWFSVFNRVYESYT | 0.841 ± 0.1 |
| FVFIVCMCSSTWAQMYGLNW | 1.25 ± 0.084 |
| FVGVYKMGFASCSMSGSGWV | inactive |
| FVHRLPGWGSKLKTIRTCSN | inactive |
| FVLKRYRCFLYLVQYDISTL | -0.326 ± 0.98 |
| FVRLHSFA | inactive |
| FVSEFMTSSTYLVPTVHITV | inactive |
